Experimental data from PMC11864179 (Science Advances, 2025).
Non-standard residues stand in square brackets, D forms with d. No end group written: not given here. *: point of attachment. Biotin = O=C1N[C@H]2[C@H](CS[C@H]2CCCCC(=O)*)N1; pS = N[C@@H](COP(=O)(O)O)C(=O)O

Molecular target: T1, HTP-3–HIM-3 complex containing His6-tagged HTP-3 and wild-type HIM-3 (C. elegans, UniProt O01820 2-739; G5EBG0 1-291)
T1 sequence (looked up) 1: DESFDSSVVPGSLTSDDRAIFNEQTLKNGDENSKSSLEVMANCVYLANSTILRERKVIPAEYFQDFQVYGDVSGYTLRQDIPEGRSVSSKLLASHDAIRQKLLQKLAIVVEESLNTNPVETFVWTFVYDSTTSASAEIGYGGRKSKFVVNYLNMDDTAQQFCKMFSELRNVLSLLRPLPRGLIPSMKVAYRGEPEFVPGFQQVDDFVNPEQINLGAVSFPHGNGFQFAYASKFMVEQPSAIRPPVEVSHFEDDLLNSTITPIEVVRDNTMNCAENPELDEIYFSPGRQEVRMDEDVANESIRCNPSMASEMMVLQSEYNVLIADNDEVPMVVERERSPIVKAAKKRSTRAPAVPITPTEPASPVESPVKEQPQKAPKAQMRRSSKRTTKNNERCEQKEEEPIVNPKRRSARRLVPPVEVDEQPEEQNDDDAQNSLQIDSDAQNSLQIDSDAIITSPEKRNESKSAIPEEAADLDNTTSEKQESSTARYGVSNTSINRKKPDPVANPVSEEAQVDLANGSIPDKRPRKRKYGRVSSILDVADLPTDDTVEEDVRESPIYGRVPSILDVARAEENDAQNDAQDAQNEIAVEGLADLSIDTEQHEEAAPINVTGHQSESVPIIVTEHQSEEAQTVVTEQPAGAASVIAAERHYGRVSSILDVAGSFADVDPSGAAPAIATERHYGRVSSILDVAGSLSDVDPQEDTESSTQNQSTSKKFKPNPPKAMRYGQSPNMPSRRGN
T1 sequence (looked up) 2: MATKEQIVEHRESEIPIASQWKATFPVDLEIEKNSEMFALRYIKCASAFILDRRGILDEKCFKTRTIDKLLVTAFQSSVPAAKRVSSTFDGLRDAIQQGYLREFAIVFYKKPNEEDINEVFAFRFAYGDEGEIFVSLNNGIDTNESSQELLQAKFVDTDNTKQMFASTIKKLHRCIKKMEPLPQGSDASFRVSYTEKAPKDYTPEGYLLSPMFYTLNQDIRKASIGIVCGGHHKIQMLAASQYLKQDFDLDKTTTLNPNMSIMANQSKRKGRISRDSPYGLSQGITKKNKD
Assay: pull-down

binding result: binds
Binder: Biotin-DDDLNDEEGDADQ[pS]IWGSDD [SYP-5 peptide spanning residues 528 to 547, phosphorylated at S541]
